B1: LINE1-full (parent)
chain: UACGUAGGUGGUUUUCCCCUGAUAGUGCUAAGGGGGCCUGGAAGUUUGGACUGGGCAGAGCUCAACACAGCGUGGCAAAGUGGCUGUGGCUAGACUGCCUCUCUGGAUUCCUCGUCACUCAGCAGGGCAUCUCUGAGAGAAAUGCC

Variants of: B1
Test: self-cleavage, relative activity (ratio to wild type); higher = more cleavage; in vitro, sequencing; the parent is a self-cleaving ribozyme

Variant	self-cleavage
G72U A94G	0.46
U73G U109C	1.07
A69G C95A	0
A69G C95U	0.06
U73C C110U	2.11
A69G U96A	0.04
A69G U96C	0.16
U73A U108A	1.42
G72A A94G	0.33
A69G A142U	0.35
A69G A142G	0.5
G70A A92G	0.04
A69U U85A	0.5
U73C C98A	0.21
A69G G72A	0.54
C71U U134A	0.36
U73A U104A	1.09
U73A U104C	1.53
G70A U132G	0.19
G72A U102A	1.66
G72U A140G	0.6

Variant	self-cleavage
G72A C84U	0.19
U73C G88U	0.13
C71U A124G	0.28
C71U A124U	1
U73A A94U	0.27
A69G U102A	0.93
A69G U102C	0.47
U73C A107U	2.22
C71U U85A	0.03
C71U U85C	0.06
G70A U73A	0.09
A69U C99G	0.09
U73C A77U	1.31
C71U A141G	0.68
C71U A141U	1.46
U73C U85C	0.08
U73C U85G	0.21
C71U U119C	1.18
G72A U143C	1.65
A69G C146U	0.51
U73A U81G	1.85

Variant	self-cleavage
U73A U81C	1.09
U73C G75U	0.78
U73A U109A	0.92
U73A G122A	1.98
G72U U87C	0.32
G72A U85G	0.21
G72A U85A	0.07
G70A A129G	0.09
G72U U73A	1.33
A69U G72A	0.04
U73G U104C	2
U73G U108A	1.33
A69G G122A	0.4
U73C U81C	1.47
A69U U132A	0.06
A69U U132C	0.07
A69U A124C	0.02
G70C U112C	0.14
A69G U85C	0.51
A69U G127C	0.12
G70A A142G	0.11

Variant	self-cleavage
G70A U134C	0.15
A69G U104C	0.71
A69G U104A	0.2
U73G U134C	1.57
C71U A79G	0.2
G72U C76U	2.1
G72U A138G	1.55
A69U C146U	0.08
U73C G74A	2.38
U73C G114A	1.54
A69G U115C	0.88
A69G U115G	0.57
A69G U115A	0.25
A69G G125U	0.3
A69G C145U	0.55
G72A U108C	1.54
G72A C120U	1.31
A69U U115C	0.07
A69U U115A	0.07
U73A A140G	1.69
G70U A138G	0.1
